Source: patent US20030092616A1, “STAT6 activation gene” (priority 2001, published 2003)

System: STAT6
Test: Screening of full-length cDNA clones for promotion of STAT6 activation (luciferase reporter N4×8-luc)
Type: cell-based
Details: NIH3T3 cells cotransfected with N4×8-luc reporter and cDNA plasmid; 48 h culture, then mouse IL-4 0.5 ng/ml for 6 h
Procedure: As a preferable method, NIH3T3 cells are inoculated on 10% FBS (Fetal Bovine Serum)-containing IMDM medium in a 96-well cell culture plate to a final cell density of 1×10^4 cells/well, and cultured for 24 hours at 37° C., in the presence of 5% CO2. Then, the luciferase reporter plasmid N4×8-luc which has a STAT6 response sequence, and the expression vector are cotransfected into the cells in a well using FuGENE 6 (Roche). After 48 hours of culture at 37° C., in the presence of 5% CO2 mouse IL-4 (Immuno Biological Laboratories Co., Ltd.) is added to a final concentration of 0.5 ng/ml. After culturing for further 6 hours, promoting activity for STAT6 activation is then measured by measuring luciferase activity using a long term luciferase assay system, Picagene LT2.0 (Toyo Ink Mfg). For example, luciferase activity can be measured using PerkinElmer's Wallac ARVOTMST 1420 MULTILABEL COUNTER. The method for gene introduction by FuGENE6, and measurement of luciferase activity by Picagene LT2.0 can be performed respectively according to the attached protocols. In a method of gene introduction with a 96-well plate using FuGENE6, the amount of FuGENE6 per 1 well is suitably 0.3 to 0.5 μl, preferably 0.3 μl; the amount of N4×8-luc reporter plasmid is suitably 50 to 100 ng, preferably 100 ng; and the amount of expression vector is suitably 50 to 100 ng, preferably 100 ng. An ability (action) to promote STAT6 activation refers to an ability to increase the reporter activity (luciferase activity) relative to the control experiment (for cells into which the reporter gene and a null vector were introduced). Increase in reporter activity is preferably by a factor of 1.5 or more, more preferably by a factor of 3 or more, and still more preferably by a factor of 6 or more.
NIH3T3 cells (purchased from Dainippon Pharmaceutical) were grown to 1×10^4 cells/well in a 96 well plate for cell culture for 24 hours at 37° C. (in the presence of 5% CO2) using 10% FBS containing IMDM medium. Then, 100 ng of luciferase reporter plasmid N4×8-luc having a STAT6 response sequence and 2 μl of the full-length cDNA prepared in above Example 1.(3) were cotransfected into the cells in a well using FuGENE 6 (purchased from Roche) according to the manufacturer's protocol. The luciferase reporter plasmid N4×8-luc having the STAT6 response sequence was constructed as follows. […] 157, 2058-2065 (1996)], oligonucleotides having the following sequences were synthesized:
The synthesized oligonucleotides were dissolved in sterile water to be 1μg/μl, respectively, mixed in 10 μl lots, and adjusted the volume to 32 μl with sterile water. The solution was heated for 5 min at 90° C., and gradually cooled down to room temperature to prepare a double-stranded oligonucleotide solution. The solution was reacted with T4 polynucleotide kinase (Takara Shuzo) according to the attached manual, then the reaction product was purified in a usual manner. Separately, SV40 promoter region of pGL3-Promoter vector (Promega) was replaced by the HSV thymidine kinase promoter sequence (from −50 to +10) with Hind III site and BglII site to construct a vector tk-luc. The aforesaid double-stranded oligonucleotide fragments were inserted into the XhoI site of this tk-luc vector using T4 DNA ligase (GIBCO/BRL). The obtained clones were sequenced according to a usual method, and clones in which plural oligonucleotide fragments were inserted were selected. […] The four-interlinked DNA fragments were excised from the N4×4-luc with a XhoI and a BglII site and purified to be inserted into a BamHI and a XhoI site of pBluescript II KS+ (Stratagene). The four-interlinked DNA fragments were excised from this plasmid with KpnI and SpeI and inserted into a KpnI and a NheI site of N4×4-luc plasmid to finally obtain N4×8-luc.

Molecule | Activity = (luciferase activity of the gene of each SEQ ID NO:)/(luciferase activity of pME18S-FL3)
241 (nucleic acid, listed as Homo sapiens, CDS (149)..(835)) GGGGTGTCCAGTTGGTTGCCGCGGCAGTCTCTCCGAGCAGCGCATTTGTCTTCTAGGCTGCTTGGTTCGTGCCTCCGAGAAAGGGGTCTCCTGCTGCCAGCTAAGTGTGGGAGAACTTGTGCACGTATCTCCCCTCCGAATCCCAACGATGGGTAACGCCAGCTTTGGCTCCAAGGAACAGAAGCTGCTGAAGCGGTTGCGGCTTCTGCCCGCCCTGCTTATCCTCCGCGCCTTCAAGCCCCACAGGAAGATCAGAGATTACCGCGTCGTGGTAGTCGGCACCGCTGGTGTGGGGAAAAGTACGCTGCTGCACAAGTGGGCGAGCGGCAACTTCCGTCATGAGTACCTGCCGACCATTGAAAATACCTACTGCCAGTTGCTGGGCTGCAGCCACGGTGTGCTTTCCCTGCACATCACCGACAGCAAGAGTGGCGACGGCAACCGCGCTCTGCAGCGCCACGTTATAGCCCGGGGCCACGCCTTCGTCCTGGTCTACTCAGTCACCAAGAAGGAAACCCTGGAAGAGCTGAAGGCCTTCTATGAGCTGATCTGCAAGATCAAAGGTAACAACCTGCATAAGTTCCCCATCGTGCTGGTGGGCAATAAAAGTGATGACACCCACCGGGAGGTGGCCCTGAATGATGGTGCCACCTGTGCGATGGAGTGGAATTGCGCCTTCATGGAGATTTCAGCCAAGACCGATGTGAATGTGCAGGAGCTGTTCCACATGCTGCTGAATTACAAGAAAAAGCCCACCACCGGCCTCCAGGAGCCCGAGAAGAAATCCCAGATGCCCAACACCACTGAGAAGCTGCTTGACAAGTGCATAATCATGTGAGCCCTGGGCCTTAAGAGCCAGCTCTTCCTATCCTGTAGCGTGTAGAAAACGTGGACTCATTTCACTATGTTACATGTACATGGTTGATTTTGTGCTGTTGTTTGGACTGTAACATCCATGTTGTCAATACGTATACCTTGTAAGTGGATAACTTTTCTTTTTCCCAGGCCAGAGAATTCAAATTGTTAAAACATTGGCATTTGAAGAGGAGAACAAAATGTAGCATGATGTATTTAAAGTAAGGCCTTTAGTAATGAATGTAATGAGAGAAAATGTTTTGAAAAGAACAAAACATCAAAATGAATAGAAAGAAAAATTGGAAGGCGTCCTTTTGGTAACCCGATTATTGTGTATTACCTTTAAATATTTCACATCCTGTAAGTGCTTAATCATATCTTTTAATTGTGTATTTAAGAAAAGTGTTTTCACAACAAAAGCTTTTGATAAATTGCTGCGTGACATATACTAAATAAAAAAATGAATATGTTGATCATTAGGGGTGTGGGAGCAGAGAAAATTGTGAAAGTGACTCTCACTAAAGATGTTAGTAGTTTCTCATGTCATTTAAAAATGTTTGAGTATTCTGCATAGCAGTTTGTAAAAGTGTAACAGCTTATTGACTTAATAAAGCTTTTCCTGCATGC | 54.3
56 (nucleic acid, listed as Homo sapiens, CDS (82)..(645)) AGAGCCGCCGCCCAGGAAGGGGATGCGGAAACCCCTGGCTCGGTGGAGCGGAGAGGCAGGCGGGCAGGAGCCGAGGACGGCATGTCCCAGGCCCCGGGAGCACAGCCGAGCCCACCCACCGTGTACCACGAACGGCAGCGCCTGGAGCTGTGTGCTGTCCACGCCCTCAACAACGTTCTGCAGCAGCAGCTCTTTAGCCAGGAGGCTGCCGATGAGATCTGCAAGAGGTTGGCCCCAGACTCCCGGCTGAACCCTCATCGCAGCCTCCTGGGCACCGGCAACTATGATGTCAATGTGATCATGGCCGCTCTGCAGGGGCTGGGCCTGGCCGCCGTGTGGTGGGACAGGAGGAGGCCCCTGTCCCAGCTGGCCCTGCCCCAGGTACTGGGGCTGATCCTGAACCTGCCCTCGCCCGTGTCGCTGGGGCTGCTGTCACTGCCGCTGCGCCGGCGGCACTGGGTGGCCCTGCGCCAGGTGGACGGTGTCTACTACAACCTGGACTCCAAGCTGCGGGCGCCCGAGGCCCTGGGGGATGAGGACGGAGTCAGGGCCTTCCTGGCGGCTGCGCTGGCCCAGGGCCTGTGCGAGGTGCTGCTGGTAGTGACCAAGGAGGTGGAGGAGAAGGGCAGCTGGCTGCGGACAGACTGACCATGGCTGACCATCGGCGCCCACAGCGCAGTCCCTGCGCATCCCCCTCCGGCTGCGCACACTGCATGCCTGGGAAAGGCCAGCACTTCATGGACCCTGGGGAGGCCCCGCCCCCTCCCCACACCCCTGCTCCCCACTGCCGCTGCTGCCTCAATAAATCTGCTGATTTGCTGCC | 4.7
261 (nucleic acid, listed as Homo sapiens, CDS (12)..(1034)) AGTGCGCGAAGATGCGAAAGGTGGTTTTGATCACCGGGGCTAGCAGTGGCATTGGCCTGGCCCTCTGCAAGCGGCTGCTGGCGGAAGATGATGAGCTTCATCTGTGTTTGGCGTGCAGGAACATGAGCAAGGCAGAAGCTGTCTGTGCTGCTCTGCTGGCCTCTCACCCCACTGCTGAGGTCACCATTGTCCAGGTGGATGTCAGCAACCTGCAGTCGGTCTTCCGGGCCTCCAAGGAACTTAAGCAAAGGTTTCAGAGATTAGACTGTATATATCTAAATGCTGGGATCATGCCTAATCCACAACTAAATATCAAAGCACTTTTCTTTGGCCTCTTTTCAAGAAAAGTGATTCATATGTTCTCCACAGCTGAAGGCCTGCTGACCCAGGGTGATAAGATCACTGCTGATGGACTTCAGGAGGTGTTTGAGACCAATGTCTTTGGCCATTTTATCCTGATTCGGGAACTGGAGCCTCTCCTCTGTCACAGTGACAATCCATCTCAGCTCATCTGGACATCATCTCGCAGTGCAAGGAAATCTAATTTCAGCCTCGAGGACTTCCAGCACAGCAAAGGCAAGGAACCCTACAGCTCTTCCAAATATGCCACTGACCTTTTGAGTGTGGCTTTGAACAGGAACTTCAACCAGCAGGGTCTCTATTCCAATGTGGCCTGTCCAGGTACAGCATTGACCAATTTGACATATGGAATTCTGCCTCCGTTTATATGGACGCTGTTGATGCCGGCAATATTGCTACTTCGCTTTTTTGCAAATGCATTCACTTTGACACCATATAATGGAACAGAAGCTCTGGTATGGCTTTTCCACCAAAAGCCTGAATCTCTCAATCCTCTGATCAAATATCTGAGTGCCACCACTGGCTTTGGAAGAAATTATATTATGACCCAGAAGATGGACCTAGATGAAGACACTGCTGAAAAATTTTATCAAAAGTTACTGGAACTGGAAAAGCACATTAGGGTCACTATTCAAAAAACAGATAATCAGGCCAGGCTCAGTGGCTCATGCCTATAATTCCAGCACTTTGGGAGGCCAAGGCAGAAGGATCACTTGAGACCAGGAGTTCAAGACCAGCCTGAGAAACATAGTGAGCCCTTGTCTCTACAAAAAGAAATAAAAATAATAGCTGGGTGTGGTGGCATGCGCATGTAGTCCCAGCTACTCAGAAGGATGAGGTGGGAGGATCTCTTGAGGCTGGGAGGCAGAGGTTGCAGTGAGCTGAGATTGTGCCACTGCACTCCAGCCTGGGTGACAGCGAGACCCTGTCTCAAAATATGTATATATTTAATATATATATAAAACCAGAGCTGACAATGACACTCTGGAACATTGCATACCTTCTGTACATTCTGGGGTACATGGATTTCTACTGAGTTGGATAATATGCATTTGTAATAAACTATGAACTATG | 14.7
